The results in this text go back to patent US20210101970A1 (Pfizer, published 2021).

In one experiment the target is T1, XC281 (human, UniProt P32302 2-372).
T1 construct: also called hCXCR5 D22A
T1 sequence: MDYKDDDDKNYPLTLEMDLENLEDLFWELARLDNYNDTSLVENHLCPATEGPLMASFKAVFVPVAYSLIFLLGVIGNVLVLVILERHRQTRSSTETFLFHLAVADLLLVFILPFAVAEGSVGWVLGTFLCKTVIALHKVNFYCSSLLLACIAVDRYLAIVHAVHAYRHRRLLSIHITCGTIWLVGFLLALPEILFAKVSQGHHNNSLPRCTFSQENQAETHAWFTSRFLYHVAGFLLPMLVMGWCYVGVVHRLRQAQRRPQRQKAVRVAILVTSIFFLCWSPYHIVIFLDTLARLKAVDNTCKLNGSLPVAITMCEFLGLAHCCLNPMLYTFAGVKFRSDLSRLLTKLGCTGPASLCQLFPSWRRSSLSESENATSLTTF
Kind of experiment: flow cytometry on HEK-293T cells transiently expressing the FLAG-tagged mutein; ratio of gMFI of the antibody to gMFI of anti-FLAG PE. The protocol: (§1) The cells were analyzed by flow cytometry using an Accuri (BD Biosciences Franklin Lakes, N.J.). The geometric mean fluorescence intensity (gMFI) was determined and the ratio for the gMFI of each CXCR5 antibody and anti-flag was calculated.
Background: Flow cytometry measures light scatter and fluorescence of single cells or particles in a stream.

A further experiment addresses T2, XC278 (human, UniProt P32302 2-372).
T2 construct: also called hCXCR5 L11T
T2 sequence: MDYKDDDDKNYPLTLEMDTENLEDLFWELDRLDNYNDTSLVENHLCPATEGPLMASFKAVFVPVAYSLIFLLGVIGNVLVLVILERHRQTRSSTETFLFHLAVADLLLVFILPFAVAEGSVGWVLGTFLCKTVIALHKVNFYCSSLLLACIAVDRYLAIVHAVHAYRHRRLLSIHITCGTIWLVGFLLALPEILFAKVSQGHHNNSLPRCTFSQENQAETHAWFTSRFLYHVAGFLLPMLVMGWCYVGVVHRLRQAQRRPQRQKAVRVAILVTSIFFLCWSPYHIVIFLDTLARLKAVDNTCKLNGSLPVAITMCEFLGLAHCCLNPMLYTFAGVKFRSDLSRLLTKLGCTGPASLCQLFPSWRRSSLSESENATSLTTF
The experiment is described as above. The protocol:
as §1

The next experiment addresses T3, XC277 (human, UniProt P32302 2-372).
T3 construct: also called hCXCR5 SI(insertion)
T3 sequence: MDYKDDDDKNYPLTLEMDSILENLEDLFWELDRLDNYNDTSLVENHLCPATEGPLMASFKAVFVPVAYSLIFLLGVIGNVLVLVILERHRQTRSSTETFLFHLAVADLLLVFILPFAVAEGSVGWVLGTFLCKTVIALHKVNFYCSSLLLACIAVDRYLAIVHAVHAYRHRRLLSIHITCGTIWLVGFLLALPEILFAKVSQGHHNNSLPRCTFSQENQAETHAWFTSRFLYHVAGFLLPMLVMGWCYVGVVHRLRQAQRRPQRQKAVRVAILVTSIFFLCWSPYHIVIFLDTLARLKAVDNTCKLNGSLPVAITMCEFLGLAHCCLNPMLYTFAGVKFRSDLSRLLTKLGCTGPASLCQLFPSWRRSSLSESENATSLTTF
The description is as above. The method, then: as §1

A further experiment concerns the target T4, XC276 (human, UniProt P32302 2-372).
T4 construct: also called hCXCR5 D10G
T4 sequence: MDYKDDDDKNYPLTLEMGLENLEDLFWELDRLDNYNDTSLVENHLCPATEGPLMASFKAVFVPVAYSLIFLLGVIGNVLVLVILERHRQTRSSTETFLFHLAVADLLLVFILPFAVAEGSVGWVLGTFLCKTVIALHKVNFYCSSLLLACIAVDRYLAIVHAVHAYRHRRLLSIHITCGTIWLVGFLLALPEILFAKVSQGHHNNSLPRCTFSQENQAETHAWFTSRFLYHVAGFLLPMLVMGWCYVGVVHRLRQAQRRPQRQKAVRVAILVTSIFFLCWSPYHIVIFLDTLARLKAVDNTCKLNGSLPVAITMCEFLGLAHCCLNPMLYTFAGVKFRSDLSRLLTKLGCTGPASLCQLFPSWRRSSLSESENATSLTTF
The experiment is described as above. The method, then:
as §1

A further experiment addresses T5, cynomolgus monkey CXCR5 (cynomolgus monkey, UniProt P32302 1-372 (human entry)).
T5 construct: also called cynoCXCR5; NHP CXCR5
T5 chain: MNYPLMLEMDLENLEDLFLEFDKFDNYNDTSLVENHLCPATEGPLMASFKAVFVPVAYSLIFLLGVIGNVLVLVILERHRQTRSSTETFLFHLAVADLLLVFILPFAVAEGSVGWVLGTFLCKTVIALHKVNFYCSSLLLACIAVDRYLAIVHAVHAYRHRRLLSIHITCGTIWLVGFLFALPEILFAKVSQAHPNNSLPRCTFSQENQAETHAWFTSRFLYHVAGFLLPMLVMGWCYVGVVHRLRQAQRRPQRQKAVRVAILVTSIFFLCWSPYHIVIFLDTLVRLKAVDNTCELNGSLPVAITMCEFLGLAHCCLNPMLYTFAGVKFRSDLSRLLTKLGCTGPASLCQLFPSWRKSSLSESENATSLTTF
As to the kind of experiment: flow cytometry on cynoCXCR5-300.19 cells, fucosylated chimeric antibody.

B1: Afucosyl humanized 11G2 154/155 (antibody, human IgG1, kappa, V domains shown)
VH: EVQLVESGGGLVQPGGSLRLSCAASGFTFTDFYMSWVRQAPGKGLEWVGFIRNKANGYTTEYSASVKGRFTISRDNAKNSLYLQMNSLRAEDTAVYYCARVYGSTLHYWGQGTLVTVSS
VL: DIQMTQSPSSLSASVGDRVTITCRASESVEYHGTSLMHWYQQKPGKAPKLLIYAASNVESGVPSRFSGSGSGTDFTLTISSLQPEDFATYYCQQSRKVPWTFGQGTKVEIKR
modifications: afucosylated Fc glycan (Asn297)
notes: also called afucosyl h11G2 XC154/XC155; afucosylated h11G2 VL XC154/VH XC155
In the case of B1, the binding result in the experiment with XC281 and with XC278 was “no binding (tested: 1 or 3 µg/ml (not on the sheet))” throughout.

B2: 2C9 (reference antibody) (antibody, human IgG1, kappa, V domains shown)
VH: EVQLVESGGGLVKPGGSLRLSCAASGFTFSTNAMNWVRQAPGKGLERVARIRSKSNNYATYYADSVKDRFTISRDDSKNTLYLQMNSLKTEDTAVYYCVTMIPFAYWGQGTLVTVSS
VL: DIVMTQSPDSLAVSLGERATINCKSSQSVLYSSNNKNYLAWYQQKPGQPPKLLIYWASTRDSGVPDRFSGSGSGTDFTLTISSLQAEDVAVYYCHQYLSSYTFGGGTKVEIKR
notes: fucosylated
In the case of B2, the binding result with XC277 and with XC276 was “no binding (tested: 1 or 3 µg/ml (not on the sheet))” in each case.

B3: Chimeric 11G2 (antibody, human IgG1, kappa, V domains shown)
VH: EVKLVESGGGLVQPGGSLRLSCATSGFTFTDFYMSWVRQPPGRALEWLGFIRNKANGYTTEYSASVKGRFTISRDNSQSILYLQMNTLRAGDSATYYCVRVYGSTLHYWGQGTILTVSS
VL: DVVVTQSPDSLAVSLGQRATISCRASESVEYHGTSLMHWYQQKPGQPPKLLIYAASNVESGVPARFSGSGSGTDFSLNIHPVEEGDIAMYFCQQSRKVPWTFGGGTKLEIKR
notes: mouse V regions on human IgG1/kappa; also called 11G2 (chimeric)
In the experiment with cynomolgus monkey CXCR5, B3 gave a concentration for a half-maximal effect (EC50) of 24.2 pM.

What is called EC50 is the midpoint of the concentration-response curve.
